Assay results reported in patent publication US20030186322A1 (Scripps Research, published 2003).

B1: 2H6 phage Fv (VH-(Gly4Ser)-pVII / VL-(Gly4Ser)-pIX heterodimer displayed on phage) (other)
VH: MAEVQLLEEVNLVESGGGLVKPGGSLKLSCAASGFTFSSYAMSWVRQTPEKRLEWVASINNGGKIYYPDSVKGRFTISRDNARNILYLQMSSLRSEDTAMYYCVKRDSSVYDYAMDNWGQGTSVTVSSGGGGSGMEQVADFDTIYQAMIQISVVLCFALGIIAGGQR
VL: VLTQSPAIMYASPGEKVTITCSASSSVSYMHWFQQKPGTSPKLWIYSTSKLASGVPARFSGSGSGTSYSLTISRMEAEDVATYYCQQRSSYTVTFGAGTKLELKRTSGGGGSMSVLVYSFASFVLGWCLRSGITYFTRLMETSS
notes: also called 2H6 phage antibody; 2H6-VHVL
B2: 21H3 phage Fv (VH-(Gly4Ser)-pVII / VL-(Gly4Ser)-pIX heterodimer displayed on phage) (other)
VH: MAEVQLLEVQLQQSGPVLVKPGGSVKMSCKASEYTLTSYLFQWVKQKSGQGLEWIGYIYPYNGGTRYNEKFRGKATLTSDKSSNTAYLELSSLTSEDSAVYYCARSSMSDPGANWGPGTLVTVSGGGGSGMEQVADFDTIYQAMIQISVVLCFALGIIAGGQR
VL: DIQMTQSPSSLSASLGERVSLTCRASQEISGYLYWLQQKPDGTIKRLIYAASTLDSGVPKRFSGSRSGSDYSLTISSLESEDFADYYCLQYASYPRTFGGGTKVEIKRADSGGGGSMSVLVYSFASFVLGWCLRSGITYFTRLMETSS
notes: also called 21H3 phage antibody; 21H3-VHVL
B3: 92H2 phage Fv (VH-(Gly4Ser)-pVII / VL-(Gly4Ser)-pIX heterodimer displayed on phage) (other)
VH: MAEVQLQQSGPELKKPGETVKISCKTSGYSFTNYGMNWVKQAPGKGLKWMGWINTYTGEPTYADDFRGRFAFSLATSASTAYLQIINLKNEDTATYFCETYDSPLGDYWGQGTTVTVSSSSGGGGSGMEQVADFDTIYQAMIQISVVLCFALGIIAGGQR
VL: DIGLTQSPASLAVSLGQRATISCRASKSVSTSGYNYMHWYQQKPGQPPKLLIYLASNLASGVPARFSGSGSGTDFTLNIHPVEEEDAATYYCLYSREFPPWTFGGGTKLEIKRSGGGGSMSVLVYSFASFVLGWCLRSGITYFTRLMETSS
notes: also called 92H2 phage antibody; 92H2-VHVL

The binders below were run against T1, BSA (bovine serum albumin) (bovine, UniProt P02769 25-607) (assay: phage ELISA).
T1 construct: Carrier protein without hapten; also called BSA-gold complex
T1 sequence (P02769 25-607 limits assumed): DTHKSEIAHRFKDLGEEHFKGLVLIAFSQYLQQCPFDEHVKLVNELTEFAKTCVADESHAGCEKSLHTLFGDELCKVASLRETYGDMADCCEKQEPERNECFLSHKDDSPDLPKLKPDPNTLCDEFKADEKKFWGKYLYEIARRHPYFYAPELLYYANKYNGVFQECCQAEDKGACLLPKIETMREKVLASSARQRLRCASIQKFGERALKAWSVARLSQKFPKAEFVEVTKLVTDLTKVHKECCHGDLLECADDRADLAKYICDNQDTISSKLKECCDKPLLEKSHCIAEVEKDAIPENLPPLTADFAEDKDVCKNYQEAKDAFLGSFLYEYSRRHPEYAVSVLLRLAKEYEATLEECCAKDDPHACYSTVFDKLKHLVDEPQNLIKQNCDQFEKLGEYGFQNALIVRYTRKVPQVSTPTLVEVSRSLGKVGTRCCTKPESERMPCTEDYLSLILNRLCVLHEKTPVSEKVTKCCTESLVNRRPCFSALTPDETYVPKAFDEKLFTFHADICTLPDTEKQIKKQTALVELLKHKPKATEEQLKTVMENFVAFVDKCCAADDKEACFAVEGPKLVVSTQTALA
Protocol: The supernatant of the phage culture described above was directly used for ELISA. Microtiter wells (Corning) were coated with 25 μl of 10 μg/ml mouse anti-Flag antibody to assay Flag constructs with pVII/pIX, with PCP-BSA for 21H3 and 2H6 constructs, and with the cocaine conjugate GNC—BSA to assay the 92H2 construct. The coated plates were then incubated at room temperature overnight and blocked with 50 μl of Blotto (4% skim milk powder in PBS). Typically, 25 μl of phage supernatant was added and the plate was incubated at 37 C. for 1 hr. After washing, 25 μl of 1/1000 dilution of horseradish peroxidase/anti-M13 conjugate (Pharmacia) in Blotto was added and incubated at 37 C. for 30 minutes. The plate was extensively washed three times with PBS/0.1% tween-20 and pipetted vigorously up and down to remove nonspecific binding phage. The plate was then developed with TMB (3,3′,5,5′-tetramethylbenzidine) substrate (Pierce) and quenched with an equal volume of 2 M H₂SO₄. The absorbance of each reaction was then read on an ELISA Plate reader at 450 nM.

Binder | binding result
B1 | no binding
B2 | no binding
B3 | no binding
